According to patent US9696316B2, “Conformationally dynamic peptides” (SYSTEM OF SYSTEMS ANALYTICS, INC., priority 2009, dated 2017):
“Also recorded” adds a separate entry of the source.

Experiments:
Assay type in all cases: binding
Aβ42 Fiber = Aβ42 Fiber (Homo sapiens, UniProt P05067); experiment: In vitro centrifugation-based interaction assay (insoluble complexes); conditions: 40% TFE, 3 hours incubation, 17,000×g 30 minutes
Procedure: In this assay, soluble peptide probes are combined with insoluble target protein fibers in an in vitro centrifugation-based interaction assay. Peptide probe that binds to the target protein will be detected in an insoluble pellet, which may be isolated using centrifugation. […] Aβ42 Fiber (target protein) and peptide probe (SEQ ID NO:1) are incubated for 3 hours in the presence of increasing amounts of trifluoroethanol (TFE). The samples are centrifuged at 17,000×g for 30 minutes, and the pellets are denatured in sample buffer and analyzed by SDS-PAGE. Reference samples (Input) are shown for comparison.

[1] = target: biotinylated Aβ42 oligomers (Homo sapiens, UniProt P05067); experiment: In vitro affinity chromatography-based interaction assay (streptavidin beads); conditions: 4 μM probe
biotinylated Aβ42 oligomers, sequence (P05067 672-713 limits assumed): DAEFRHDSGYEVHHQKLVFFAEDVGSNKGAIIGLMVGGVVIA
Procedure: In this assay, soluble peptide probes are combined with, for example, soluble target protein oligomers in an in vitro affinity chromatography-based interaction assay. For this example, target protein is labeled with an affinity molecule, such as biotin, and incubated with a labeled peptide probe. After incubation, the mixture is incubated with the capture moiety, such as streptavidin, on a support, for example a column or beads, such that the target protein is captured. After washing of unbound material, the support can be examined for detection of the labeled peptide probe, which would indicate the presence of bound target protein-peptide probe complexes on the support. Alternatively, the bound material may be eluted and then examined for detection of the labeled peptide probe. Again, detection of the labeled peptide probe would indicate the presence of target protein-peptide probe complexes in the eluant. FIGS. 5A and 15A illustrate an affinity chromatography assay using biotin-labeled target protein and streptavidin-coated beads. This type of assay is useful, for example, for assessing the efficacy of a given peptide probe. […] The beads are washed with PBS to remove unbound material and the captured material is analyzed by SDS-PAGE. […] […]

Aβ fibers = Aβ fibers (Homo sapiens, UniProt P05067); experiment: Aβ fiber assay in 40% TFE; conditions: di-pyrene labeled
Aβ fibers, sequence (P05067 672-713 limits assumed): as above
Description: An Aβ fiber assay may be conducted in an organic solvent, such as 40% TFE. […] This conformation is associated with the monomer or self fluorescence of the pyrene moieties (370-410 nm; see FIG. 6). […] This conformation is associated with the excimer fluorescence of the pyrene moieties (430-530 nm; see FIG. 6).

[2] = system: fibrillar amyloid target protein; experiment: Signal gain on conformational change in the presence of fibrillar amyloid
Procedure: Peptide Probe 22 (SEQ ID NO:2, 2 μM) labeled at each terminus with pyrene is incubated in 0 to 80% TFE in tris buffer (10 mM Tris, pH 7.0) for 30 min. The reaction is measured by TECAN fluorimeter, and the excimer:monomer fluorescence ratio is recorded. […] When tested for the ability to undergo conformational change in the presence of a fibrillar amyloid target protein, Peptide 22 performs 2.6 times greater than the reference peptide (SEQ ID NO:1).

Aβ42 oligomer [3] = target: T1, Aβ42 oligomer (Homo sapiens, UniProt P05067); experiment: CD analysis of peptide probe with target protein; conditions: 10 mM sodium phosphate pH 7.0, 3 hours
T1 sequence (P05067 672-713 limits assumed): as above
Description: The conformation of the peptide probe bound to the target protein can be assessed by CD analysis. […] The peptide alone is highly alpha helical (36%). Upon mixing of Peptide 38 with the target protein, the peptide undergoes a conformation shift that results in increased β-sheet conformation, and decreased α helix conformation. That is, the secondary structure of Peptide 38 is altered such that the proportion of a helix is halved (18%), while the proportion of β-sheet structure is enhanced from 20% to 31%. […] Circular dichroism (CD) analysis is used to determine the secondary structure of Peptide 22, synthetic Aβ42 oligomer, and a mixture thereof. Samples are incubated in 10 mM sodium phosphate (pH 7.0) for 3 hours at room temperature before measuring CD. For each sample, the relative ellipticity is evaluated from 190-260 nm. […] Each data set represents the average of three separate spectral scans.

Aβ42 oligomer [4] = target: T1, Aβ42 oligomer; experiment: Aqueous Aβ oligomer assay, pyrene fluorescence
Description: The conformation of peptide probe bound to the target protein can also be detected by measuring pyrene fluorescence, on the peptide alone and in combination with the target protein. […] The excimer fluorescence associated with the β-sheet conformation has a different wavelength than the monomer fluorescence associated with the alpha-helix conformation, and the excimer:monomer fluorescence ratio is 9:1. […] The addition of Aβ42 oligomer target protein results in a dose-dependent shift of the excimer:monomer fluorescence ratio to 20:1 at the highest Aβ42 oligomer concentration (0.3 μM). This change in excimer:monomer fluorescence ratio reflects a corresponding conformational change in the peptide, that results in increased β-sheet conformation, and decreased α helix conformation.
An Aβ oligomer assay may be conducted in an aqueous solvent, such as water. […] Upon introduction of Aβ oligomer, the fluorescence profile shifts to primarily self-fluorescence (monomeric) (see FIG. 11), which is associated with reduced β-sheet structure, or increased alpha helix structure.
As discussed above, Peptide 22 (SEQ ID NO: 2) undergoes a conformational change upon interaction with Aβ oligomer. FIG. 11 illustrates the fluorescence spectra for Peptide 22 labeled at each terminus with pyrene and incubated in aqueous conditions for several hours at room temperature in 10 mM Hepes (pH 7.0). […] (solid line=Time 0; dashed line=3 hours; dotted line=18 hours).
(§1) Peptide 22 (100 nM) is incubated in water for 15 hours at room temperature with equimolar concentrations ([…]) of several potential Aβ substrates: Aβ42 oligomer (type 1); Aβ42 oligomer (type 2); Aβ1-42 monomer; Aβ1-40 monomer; Aβ1-42 fiber; Aβ1-40 fiber; bovine serum albumin (control substrate); and carbonic anhydrase (control substrate).
With reference to FIG. 13A, Peptide 22 (70 nM) is incubated with […] synthetic Aβ42 oligomer at 25 C, and fluorescence emission spectra is recorded after 3 hours incubation. […] (solid line—no Aβ42 oligomer; dashed/dot line—30 nN Aβ42 oligomer; large dashed line—100 nN Aβ42 oligomer; small dashed line—300 nN Aβ42 oligomer)

Aβ1-40 fiber = target: T2, Aβ1-40 fiber (Homo sapiens, UniProt P05067); experiment: Specificity assay, pyrene fluorescence; conditions: 100 nM peptide, water, 15 hours, 0-300 nN substrate
T2 construct: Aβ1-42 monomer; Aβ1-40 monomer; Aβ1-42 fiber; Aβ1-40 fiber
T2 sequence (P05067 672-711 limits assumed): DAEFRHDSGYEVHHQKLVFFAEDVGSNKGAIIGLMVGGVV
Procedure: as §1

Aβ1-40 monomer = target: T3, Aβ1-40 monomer (Homo sapiens, UniProt P05067); experiment: Specificity assay, pyrene fluorescence; conditions: 100 nM peptide, water, 15 hours, 0-300 nN substrate
T3 construct: Aβ1-42 monomer; Aβ1-40 monomer; Aβ1-42 fiber; Aβ1-40 fiber
T3 sequence (P05067 672-711 limits assumed): as above
Procedure: as §1

Aβ1-42 fiber = target: T4, Aβ1-42 fiber (Homo sapiens, UniProt P05067); experiment: Specificity assay, pyrene fluorescence; conditions: 100 nM peptide, water, 15 hours, 0-300 nN substrate
T4 construct: Aβ1-42 monomer; Aβ1-40 monomer; Aβ1-42 fiber; Aβ1-40 fiber
T4 sequence (P05067 672-713 limits assumed): as the sequence (P05067 672-713 limits assumed) above
Procedure: as §1

Aβ1-42 monomer = target: T5, Aβ1-42 monomer (Homo sapiens, UniProt P05067); experiment: Specificity assay, pyrene fluorescence; conditions: 100 nM peptide, water, 15 hours, 0-300 nN substrate
T5 construct: Aβ1-42 monomer; Aβ1-40 monomer; Aβ1-42 fiber; Aβ1-40 fiber
T5 sequence (P05067 672-713 limits assumed): as above
Procedure: as §1

bovine serum albumin = bovine serum albumin (Bos taurus, UniProt P02769); experiment: Specificity assay, pyrene fluorescence (control substrate); conditions: 100 nM peptide, water, 15 hours, 0-300 nN substrate
bovine serum albumin, sequence (P02769 25-607): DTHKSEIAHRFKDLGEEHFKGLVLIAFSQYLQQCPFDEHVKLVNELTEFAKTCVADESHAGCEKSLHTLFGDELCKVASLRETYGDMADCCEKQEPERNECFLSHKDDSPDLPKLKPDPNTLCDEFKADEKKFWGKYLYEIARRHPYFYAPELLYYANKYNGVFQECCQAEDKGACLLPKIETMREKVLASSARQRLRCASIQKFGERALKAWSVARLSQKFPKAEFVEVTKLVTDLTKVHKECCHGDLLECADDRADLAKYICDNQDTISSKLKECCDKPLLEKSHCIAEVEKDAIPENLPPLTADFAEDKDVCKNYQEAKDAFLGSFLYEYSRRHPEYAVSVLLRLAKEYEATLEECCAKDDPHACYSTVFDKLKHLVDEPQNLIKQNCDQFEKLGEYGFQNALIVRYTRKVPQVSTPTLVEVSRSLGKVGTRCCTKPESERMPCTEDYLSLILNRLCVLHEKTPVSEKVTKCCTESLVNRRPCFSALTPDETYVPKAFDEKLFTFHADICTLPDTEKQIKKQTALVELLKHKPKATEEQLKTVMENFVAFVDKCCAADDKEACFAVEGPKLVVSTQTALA
Procedure: as §1

carbonic anhydrase = experiment: as above; conditions: 100 nM peptide, water, 15 hours, 0-300 nN substrate
Procedure: as §1

Aβ42 Fiber, sequence (P05067 672-713 limits assumed): as the sequence (P05067 672-713 limits assumed) above

Substance | binding of peptide probe to Aβ42 fiber (peptide band in pellet, SDS-PAGE) (Aβ42 Fiber) | capture of labeled peptide probe with biotinylated Aβ42 oligomer on streptavidin beads (SDS-PAGE) [1] | conformation in the absence of Aβ fibers (CD, data not shown) (Aβ fibers) | conformation upon introduction of an Aβ fiber substrate (pyrene excimer fluorescence) (Aβ fibers) | maximal signal gain in the presence of fibrillar amyloid target protein relative to the reference peptide (SEQ ID NO:1) [2] | β sheet secondary structure (CD) (Aβ42 oligomer [3]; 4 μM peptide alone, room temperature) [%] | β sheet secondary structure (CD) (Aβ42 oligomer [3]; 4 μM peptide incubated with 33 nM synthetic Aβ42 oligomer) [%] | pyrene monomer (self) fluorescence (370-420 nm) versus Aβ42 oligomer concentration (Aβ42 oligomer [4]; 70 nM peptide, 0, 30, 100, 300 nM synthetic Aβ42 oligomer, 25 C, 3 hours (FIG. 13A)) | fluorescence over time in the absence of oligomer (Aβ42 oligomer [4]; 10 mM Hepes pH 7.0, room temperature, 0, 3, 18 hours (FIG. 11)) | reactivity with Aβ42 oligomers (transition from pyrene excimer fluorescence to pyrene self-fluorescence) (Aβ42 oligomer [4]; aqueous assay) | preferential binding by state of self-aggregation of Aβ protein (Aβ42 oligomer [4]; versus monomers, fibers and control proteins) | fluorescence response to Aβ40 fibers (Aβ1-40 fiber) | fluorescence response to Aβ40 monomer (Aβ1-40 monomer) | fluorescence response to Aβ42 fibers (Aβ1-42 fiber) | fluorescence response to Aβ42 monomer (Aβ1-42 monomer) | fluorescence response to BSA control (bovine serum albumin) | fluorescence response to Anhydrase control (carbonic anhydrase)
KLVFFAEDVGSNKGAIIGLMK (KLVFFAEDVGSNKGAIIGLMK) [SEQ ID NO:1, Aβ protein residues 16-35, with added C-Terminal Lys] | binding of target protein and peptide probe is clearly observed | labeled peptide probe is only detected in the captured material, in the presence of high molecular weight oligomers | primarily alpha helical | adopts a β-sheet conformation | – | – | – | – | – | – | – | – | – | – | – | – | –
KLVFFAEDVGSNKHAIIELMK (KLVFFAEDVGSNKHAIIELMK) [Peptide 22, Salt bridge at G29H and G33E] | – | directly binds to biotinylated Aβ42 oligomer | – | – | about 2.6 times | 36 | 43 | increases with Aβ42 oligomer concentration in a dose-dependent manner | stable over time | react with Aβ42 oligomers | preferentially binds to Aβ protein in the form of soluble Aβ oligomers | no change in fluorescence; also recorded: slight fluorescence response | no change in fluorescence | some dose-dependent increase in monomer fluorescence | no change in fluorescence; also recorded: slight fluorescence response | no change in fluorescence | no change in fluorescence
